Experimental data reported in the supplement of paper PMC9170038.

Tested on: MS2 coat protein
Test: apparent KD of MS2 coat protein; designed switch direction (-1 OFF switch, 1 ON switch): -1; higher = weaker reporter binding
Outline: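 An oligonucleotide input, 200 uM small-molecule ligand, or no input was present during titration of SNAP-549-labelled MS2 coat protein, which was doubled from 0.7 or 1.5 nM to 3 µM. Designed RNA switches had been transcribed on Illumina chips by stalled E. coli RNA polymerase. Apparent KD per design is the median over clusters of curves fitted to normalised cluster fluorescence.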

[1] = Eterna round: R95, input ligand: microRNA oligo, concentration not stated
[2] = Eterna round: R95, input ligand: FMN 200 uM
[3] = Eterna round: R95, input ligand: none
[4] = input ligand: microRNA oligo, concentration not stated

Sequence | apparent KD of MS2 coat protein [1] [µM] | apparent KD of MS2 coat protein [2] [µM] | apparent KD of MS2 coat protein [3] [µM] | apparent KD of MS2 coat protein (input ligand: FMN 200 uM) [µM] | apparent KD of MS2 coat protein (input ligand: none) [µM] | apparent KD of MS2 coat protein [4] [µM]
UAGUGGCAAGGAUAUACAGAGGAGAGGAUUGCAAGAGGUGGACAUGAGGAUCACCCAUGUAGAAGGUGCAGAGA [JR_Exclu2_Sub022] (puzzle: Exclusion 2) | 0.252 | – | – | – | – | –
UGGGUACUCCAUAGAAGAGACAUGAGGAUCACCCAUGUAGGGCAAGCUUUUUGCUCGUCUUAGGAUGAGGGAUAGGA [JR_SV3TOV1_Sub014] (puzzle: Sensor v3, turn-off variant 1) | 0.0791 | 0.171 | 0.188 | – | – | –
AGUGUGUUAGGAUAUCGGAUAUGCUGGAGGAGGUGGAGUUACGAGAAGGAACAUGAGGAUCACCCAUGUAGGAC [JR_Exclu4_Sub049] (puzzle: Exclusion 4) | 0.0257 | – | – | – | – | –
GGCACACAUGAGGAUCACCCAUGUCAGGAUAUGUGGCGAUCGUCGAUAGACGAUAGCCACAGAAGGGACAGGCC [Mat - Exclusion 1 - Eli Mod - D22] (Eterna round: R97, puzzle: Exclusion 1) | – | – | – | 0.11 | 0.0699 | –
AUGGUACAUGAGGAUCACCCAUGUUAGGAUAUCGCGUGUUCUAAAACUAAGAGACACACGAGAAGGGACGACAU (puzzle: Exclusion 1) | 0.0678 | 0.0515 | 0.0714 | – | – | –
UUCGUGCAGCUUUGCUGUACGCGUACAUGAGGAUCACCCAUGUAGGAUAUGGUAGGCUUUGCUUACUAGAAGGAUAUUGUGAUC [JL EXNG3 1.32] (Eterna round: R96, puzzle: Exclusion NG 3) | – | – | – | 0.256 | 0.123 | 0.0809
CCAAACUGAGGAUAUACAUGAGGAUCACCCAUGUGCCCGCGGUCAUAUGUAGCCUAGUGUAGAAGGCAGAAAAC [Rearle] (puzzle: Exclusion 3) | 0.033 | – | – | – | – | –
CCUAGACAUGAGGAUCACCCAUGUGAGGAUAUGAUGCGAUCGUCGAAAGACGAUAGCAUCAGAAGGCACAUAUG [Fiskers Ex 1 - 5] (puzzle: Exclusion 1) | 0.0369 | – | – | – | – | –
UCCUCACAUGAGGAUCACCCAUGUUAGGAUAUCUCGGUGCCCUGCAGGCAGUGGCACCAGAGAAGGAACGUGCA [Querra] (puzzle: Exclusion 1) | 0.0188 | – | – | – | – | –
CCGAACUCAGGAUAUGCAUGUAUAACAGAGAGAUCCACUAAACAUGAGGAUCACCCAUGUAGAAGGGAGUCGGG [Eternabot (L1) Solution 14] (Eterna round: R97, puzzle: Exclusion 2) | – | – | – | 0.887 | 0.365 | –
GGUUGGCGAGGAUAUACAUGAGGAUCACCCAUGUGAGAGUAAAAAGUGAGGAAGAAAAGUAGAAGGCGCUGACG [salish99_ex3_r3_011] (puzzle: Exclusion 3) | 0.0363 | 0.0686 | 0.044 | – | – | –
UAUAUAUAGUAAGGAUAUGUAUUAAUUUUUUAAACAGAAGGUACUGACAUGAGGAUCACCCAUGUUUUAGUGUGGGCAUGUAGA [JMF's solution 86] (Eterna round: R96, puzzle: Exclusion NG 1) | – | – | – | – | – | 0.0657
GUGUAGAUAGGAUAUGCAUAGAGCUUACGAAAGUAGGCUCUACAUGAGGAUCACCCAUGUAGAAGGGUCUACAC [Dot plot directed A v15] (puzzle: Exclusion 2) | 0.025 | – | – | – | – | –
GUUUCACAUGAGGAUCACCCAUGUGAGGAUAUGCAUUUGUUAACCGUAGUUAAUAGAUGCAGAAGGCGCGUGAU [JRxlusion 5 - Jieux - Exclusion 1] (Eterna round: R97, puzzle: Exclusion 1) | – | – | – | 0.0698 | 0.065 | –
GUCAGCUCGUGAGGAUAUACAUGCGUGCUUCGGCACGAAUUUAAGAUCACAUGAGGAUCACCCAUGUAGAAGGUACGAGCUGAC [ENG2/3-C1] (Eterna round: R96, puzzle: Exclusion NG 2) | – | – | – | 0.632 | 0.387 | 0.646
CCAUCGAGUGUGAGGAUAUGCUGUUCGAAAGAGCAGCAGAAGGCACAUGAGGAUCACCCAUGUGGAUACGGUGG [Mat - Exclusion 4 - JL Mod - D82] (puzzle: Brourd's mod of Exclusion 4) | 0.0306 | – | – | – | – | –
GUAGAGUCAGGAUAUACAAGAUCGAAAGAUCGGCGAUCCAUACAUGAGGAUCACCCAUGUAGAAGGGACUCUAC [Eli x2 4.003] (Eterna round: R97, puzzle: Exclusion 2) | – | – | – | 0.56 | 0.0334 | –
CUCCUACAUGAGGAUCACCCAUGUCAGGAUAUCUCAGUGGUACCUAAAUUUACCACCCAGAGAAGGGACGUGCA [Diradireer] (puzzle: Exclusion 1) | 0.0119 | – | – | – | – | –

Sequence | apparent KD of MS2 coat protein [1] [µM] | apparent KD of MS2 coat protein [2] [µM] | apparent KD of MS2 coat protein [3] [µM] | apparent KD of MS2 coat protein (input ligand: FMN 200 uM) [µM] | apparent KD of MS2 coat protein (input ligand: none) [µM] | apparent KD of MS2 coat protein [4] [µM]
CAGUGACAUGAGGAUCACCCAUGUUAGGAUAUCCGCAAAGGGAGUAGGAUUCCCAUUUGGAGAAGGGACAGGUG [Eternabot (L1) Solution 95] (Eterna round: R97, puzzle: Exclusion 1) | – | – | – | 0.0725 | 0.0526 | –
ACGCCGCAAGGAUAUCGUAAAGCAGACAUGAGGAUCACCCAUGUGAUAUCAUAAAGGCCACGAGAAGGUGCACAAG [Quoredin] (puzzle: Exclusion 5) | 0.0212 | 0.0358 | 0.0245 | – | – | –
GCACGGAGUGUAGGAUAUCUGUGCGAUUAGCUCAGAGAAGGACACAUGAGGAUCACCCAUGUGUACCUCAACACUAAUCCGUGC [Eli exng1 - 076] (Eterna round: R96, puzzle: Exclusion NG 1) | – | – | – | 0.0105 | 0.0101 | 0.00888
GAUUAUGCGAGCUUUAGGGACAUGAGGAUCACCCAUGUUCGUCUUAUUGGUCUGAGUACACUAACAUACCUAAAUCU [JMF 15] (puzzle: Sensor v3, turn-off variant 1) | 0.0264 | 0.0183 | 0.0203 | – | – | –
AGUCGUAGACAGGAUAUGCGGCUAAUAAAUAAAGCAGAAGGGUCUACUUGAGGAUCACCCAAGUGGGCGGUCAA [jl-ex6-4.21 ViennaUCT mod] (Eterna round: R97, puzzle: Exclusion 6) | – | – | – | 0.186 | 0.0518 | –
AAUAACAGAGGAUAUACUGUUUUAUGUGUUUGUUGUUUUGAACAUGAGGAUCACCCAUGUAGAAGGCUGAUUAA [JMF 53] (puzzle: Exclusion 2) | 0.0316 | – | – | – | – | –
AUUAUACAUGUAGGAUAUCUGCACGUGUAGUGCAGAGAAGGACAUGAGGAUCACCCAUGUAGAUCAAUAAUAAUUAAUUUAAUU [ENG1/6-B3] (Eterna round: R96, puzzle: Exclusion NG 1) | – | – | – | 0.184 | 0.104 | 0.0968
GUGUACAGAGGAUAUGCACGAGUAGUUACGAAAGUAACUGCACAUGAGGAUCACCCAUGUAGAAGGCUGUACAC [Dot plot directed v4] (puzzle: Exclusion 2) | 0.0154 | – | – | – | – | –
ACAGUUUUGCAAGGAUAUCGUUUUAGUUUAUUACGAGAAGGUGCUUAAGUAAUUUCUUUGGGUUGACAUGAGGAUCACCCAUGU [JR_ExcNG1_Sub058] (Eterna round: R96, puzzle: Exclusion NG 1) | – | – | – | 0.16 | 0.139 | 0.128
AAUAAUGAUAAGGAUAUCACUAGCUUCGGCUAGUGAGAAGGUAUCACAUGAGGAUCACCCAUGUGUUCCAAUAA [Ex6/6-A1] (Eterna round: R97, puzzle: Exclusion 6) | – | – | – | 0.0381 | 0.018 | –
GAUUGACAUGAGGAUCACCCAUGUGAGGAUAUCGGCUGGACCGUGUUGGCUUGCUUUUCGAGAAGGCGCAUAGG [Exclusion 1 V49] (puzzle: Exclusion 1) | 0.0368 | 0.055 | 0.035 | – | – | –
GUGCCGCGAGGAUAUACAGACGGGUCCAGUACGUGUCUGGGACUUGAGGAUCACCCAAGUAGAAGGCGUCUCAG [salish99_ex2_r4_613] (Eterna round: R97, puzzle: Exclusion 2) | – | – | – | 0.0399 | 0.0446 | –
AGAAGUAGAAACCGAUCCUACAUGAGGAUCACCCAUGUAGCAAGACGUGCACGCGAAGCUCGUCAGACUACCAGAAA [salish99_TOv1_r3_005] (puzzle: Sensor v3, turn-off variant 1) | 0.223 | 0.159 | 0.337 | – | – | –
GGUUGGCGAGGAUAUACAUGAGGAUCACCCAUGUGAUAGAAAAAAGUGAGGAAGAAAAGUAGAAGGCGCUGACG [salish99_ex3_r3_009] (puzzle: Exclusion 3) | 0.0501 | 0.723 | 0.187 | – | – | –
GAGGUGUAAGGAUAUAGCUAUAGGCUAACCGGGACCCAUAGCUAGAAGGUACAUGAGGAUCACCCAUGUUUGCU [Eternabot (L1) Solution 99] (Eterna round: R97, puzzle: Exclusion 4) | – | – | – | 0.0349 | 0.0226 | –
CUUCUCUCAUGGAAUCCUGACAUGAGGAUCACCCAUGUUGCUGAGGAUAUCCAGCGCUACGGCGCGGAGAAGGCGGCUCUUAAA [Enties] (Eterna round: R96, puzzle: Exclusion NG 3) | – | – | – | 0.0129 | 0.0172 | 0.01
GCAGUUCGAGUUAGGAUAUGAUUAAAAUUCGGAUAUCAGAAGGAACUUGAGGAUCACCCAAGUAUAGAUGUUGC [JR_BMEx4_Sub059] (Eterna round: R97, puzzle: Brourd's mod of Exclusion 4) | – | – | – | 0.0421 | 0.0171 | –
CCAUAUAACUGAGGAUAUAAUCGCCACUGACGUUUAGAAGGCAGACAUGAGGAUCACCCAUGUGAUUUCUCAAUAUUAUACAUC [Prohibition 78 - Jieux - Exclusion NG 1] (Eterna round: R96, puzzle: Exclusion NG 1) | – | – | – | 1.84 | 0.245 | 0.0311
